Measurements reported in US20120149104A1 (ALLERGAN, published 2012).
Positions count from the first letter of the chain named.

B1: α-SNAP-25 monoclonal antibody 2E2A6 (antibody, V domains shown)
VH: QVQLQQSDAELVKPGASVKISCRASGYTFTDHSIHWVKQQPGQGLEWIGYIFPGNGNIEYNDKFKGKATLTADKSSGTAYMQLNSLTSEDSAVYFCKRMGYWGQGTSVTVSS
VL: DVLMTQTPLTLSVTIGQPASISCKSSQSLLYTNGKTYLTWLFQRPGQSPKRLIYLVSELDSGVPDRFSGSGSGTDFTLEITRVEAEDLGVYYCLQSAHFPFTFGSGTKLEIKR
B2: α-SNAP-25 monoclonal antibody 3C1A5 (antibody, V domains shown)
VH: QVKLQESGAELVKPGASVKISCKASGYTFTDHSIHWVKQKPGQGLEWIGYLFPGNGNFEYNEKFKGKATLTADKSSSTVYMYLNSLTSEDSAVYFCKRMGYWGQGTTVTVSS
VL: B1 VL with L3V, Y31N, F42I, K50Q, E58K, E79K, T81S, A97S
B3: α-SNAP-25 monoclonal antibody 1D3B8 (antibody, V domains shown)
VH: QVKLQESGAELVKPGASVKISCKASGYIFTDHALHWVRQKPEQGLEWIGYIFPGNGNIEYNEKFKGKATLTADKSSSTAYMQLNSLTSGDSAMYFCKKMDYWGQGTTVTVSS
VL: DVLMTQTPLSLPVSLGDQASISCRSSQSIVHSNGNTYLEWYLQKPGQSPKLLIYKVSNRFSGVPDRFSGSGSGTDFTLKISRVEAEDLGVYYCFQGSHVPPTFGAGTKLELKR
B4: α-SNAP-25 monoclonal antibody 2C9B10 (antibody, V domains shown)
VH: B2 VH with V79A, Y82H, R98K, G100D
VL: DIQMTQSPASLSASVGETVTITCRTTENIYSYFVWSQQRQGKSPQLRVYNAKSLAEGVPSSFNVSVSGTQFSLKINSLQPEDFGTYHCQHHYGTPYTFGGGTRLEIRR

Tests used:
[1] = biological target: T1, SNAP-25 peptide comprising amino acids 134-197 of SEQ ID NO: 5 (human); test: SPR (BIAcore 3000), peptide on CM5 chip, antibody in flow
[2] = biological target: T1, SNAP-25 peptide comprising amino acids …; test: as above; remark: listed apart in the source
[3] = biological target: SNAP-25 peptide comprising amino acids 134-206 of SEQ ID NO: 5 (human); test: as above
[4] = biological target: T2, SNAP-25206 uncleaved substrate (in PC12 cells) (UniProt P60881 1-206); test: cell-based assay, Western blot of PC12 cells +/- GFP-BoNT/A-LC, ascites 1:100
T2 construct: domain: SNAP-25206 uncleaved substrate; also called uncleaved SNAP-25
T2 sequence (P60881 whole entry): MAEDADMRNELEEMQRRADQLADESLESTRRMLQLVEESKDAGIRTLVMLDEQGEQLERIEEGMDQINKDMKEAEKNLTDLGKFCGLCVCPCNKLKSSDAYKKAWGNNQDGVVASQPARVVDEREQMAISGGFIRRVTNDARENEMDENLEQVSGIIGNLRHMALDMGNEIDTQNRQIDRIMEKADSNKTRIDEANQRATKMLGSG

[5] = biological target: T1, SNAP-25 peptide comprising amino acids …; test: SPR (BIAcore 3000), peptide on CM5 chip, antibody in flow; value in parentheses, second determination not explained
[6] = biological target: T1, SNAP-25 peptide comprising amino acids …; test: SPR (BIAcore 3000), peptide on CM5 chip, antibody in flow; value in parentheses, second determination not explained; value in parentheses (second set for 2E2A6; KD 0.405 nM, used in paragraph 239)

Row | Binder | fold difference of the off rate/dissociation constant against MC-6050 and MC-6053 [1] | Kd [2] | koff [2] | kon [2] | binding result [3] | binding result [4] | Kd [5] | koff [5] | kon [6] | fold difference of the equilibrium disassociation constant against MC-6050 and MC-6053 [1]
1 | B1 | ≥ 1 fold | 0.09 nM | 0.000153 s⁻¹ | 1.7e+06 M⁻¹ s⁻¹ | no binding (tested: 10 µM) | no binding | 0.405 nM | 6.74e-05 s⁻¹ | 166000 M⁻¹ s⁻¹ | –
2 | B2 | – | 1.33 nM | 0.000288 s⁻¹ | 217000 M⁻¹ s⁻¹ | no binding (tested: 100 nM) | no binding | – | – | – | –
3 | B3 | – | 0.05 nM | 5.78e-05 s⁻¹ | 1.06e+06 M⁻¹ s⁻¹ | no binding (tested: 125 nM) | no binding | – | – | – | ~10 fold
4 | B4 | – | 27.1 nM | 0.000311 s⁻¹ | 11500 M⁻¹ s⁻¹ | – | no binding | – | – | – | –
